This note sets out measurements from publication PMC9483108.

The target of data set [1] is T1, RPL (Col-0)-His (Arabidopsis thaliana (Col-0), UniProt Q9LZM8 1-575).
T1 sequence: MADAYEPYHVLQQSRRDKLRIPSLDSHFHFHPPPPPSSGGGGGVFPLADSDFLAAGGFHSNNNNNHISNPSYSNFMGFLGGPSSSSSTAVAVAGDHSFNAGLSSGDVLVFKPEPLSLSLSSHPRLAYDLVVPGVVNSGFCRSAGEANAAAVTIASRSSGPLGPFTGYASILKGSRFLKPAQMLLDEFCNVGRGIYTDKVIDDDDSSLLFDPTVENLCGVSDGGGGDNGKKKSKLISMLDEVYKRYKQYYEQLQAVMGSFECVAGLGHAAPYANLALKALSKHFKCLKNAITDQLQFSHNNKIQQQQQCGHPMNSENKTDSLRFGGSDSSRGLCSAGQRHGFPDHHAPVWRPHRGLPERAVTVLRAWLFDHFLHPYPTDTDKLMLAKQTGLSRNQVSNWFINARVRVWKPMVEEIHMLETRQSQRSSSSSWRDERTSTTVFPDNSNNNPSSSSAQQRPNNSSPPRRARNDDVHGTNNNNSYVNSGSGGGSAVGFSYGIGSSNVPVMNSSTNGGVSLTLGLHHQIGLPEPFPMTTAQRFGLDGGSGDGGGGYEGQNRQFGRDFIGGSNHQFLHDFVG
Nature of the data set: EMSA.

In data set [2] the target is T1, RPL (Col-0)-His. Nature of the data set: EMSA. The source holds these as a separate data set.

Read-outs that look alike come from different tables or passages of the source.

B1: CHI-m2-65bp (dsDNA)
DNA 1: GCTATTTTTTTTTTTTTTAATTTTATTGATCAATCAACTGAATACTGAATACAAAAGAAAACCTG
DNA 2: CAGGTTTTCTTTTGTATTCAGTATTCAGTTGATTGATCAATAAAATTAAAAAAAAAAAAAATAGC
As to B1, the binding result in data set [1] is recorded as “binds”.

B2: GH3.3-m1-65bp (dsDNA)
DNA 1: CAAATTGAAAATGTCATTACCACTGATTAAAAAGGAATCAAAAGAAAAAAAGCTTTTAGTATTGA
DNA 2: TCAATACTAAAAGCTTTTTTTCTTTTGATTCCTTTTTAATCAGTGGTAATGACATTTTCAATTTG
In the case of B2, the binding result in data set [2] was “binds”.

B3: GH3.3-m2-65bp (dsDNA)
DNA 1: AATCAAAAGAAAAAAAGCTTTTAGTATTGAGTATTGACCGTCGCTATCGGTGACAGGCAGAGTCA
DNA 2: TGACTCTGCCTGTCACCGATAGCGACGGTCAATACTCAATACTAAAAGCTTTTTTTCTTTTGATT
In the case of B3, the binding result in data set [2] was “binds”.

B4: CHI-m1-65bp (dsDNA)
DNA 1: CCATTTTTGTTTTTTGTTTTTTCAGTGACAAACTCACATGGATTTCATTTCAGATTCAGTTAGAT
DNA 2: ATCTAACTGAATCTGAAATGAAATCCATGTGAGTTTGTCACTGAAAAAACAAAAAACAAAAATGG
As to B4, the binding result in data set [1] is on record as “binds”.
